In this data set the test system is CN(CC(=O)O)C(=O)CN. Description: concentration-dependent cellular uptake, HPLC-MS/MS, mock-corrected, Km. It counts as cell-based, Homo sapiens.

Among the data in article PMC5826766 are Km, Vmax and Vmax/Km values, retold here.

With “hPHT1 (human peptide/histidine transporter 1, SLC15A4) (Homo sapiens; L14A/L15A/L318A/V319A)”, the Michaelis-Menten constant (Km) was 1690 ± 300 µM, the Vmax was 0.0001 µmol/min/mg and the Vmax/Km amounted to 0.0592 µL/min/mg.
